From PMC4979012, “Structural basis for cytokinin production by LOG from Corynebacterium glutamicum” (Scientific Reports, 2016)

Experiments:
[1] = target: LOG from Corynebacterium glutamicum ATCC 13032 (gene product of Cg2612) (Corynebacterium glutamicum ATCC 13032); test: SEC; analytical, Superdex 200 10/300, 150 mM NaCl, 300 μL of 3 mg/ml protein; molecular weight from a calibration curve of standards
[2] = target: LOG from Corynebacterium glutamicum ATCC 13032 (gene product of Cg2612) (Corynebacterium glutamicum ATCC 13032); test: SAXS; solution SAXS at 4 °C, CgLOG 0.5 ~ 4.5 mg/ml; molecular mass by the QR method
[3] = target: T1, CgLOG (Cg2612) (Corynebacterium glutamicum, UniProt Q8NN34, S19A); test: phosphoribohydrolase assay, TLC with UV detection of adenine; assay type: biochemical; details: 20 mM AMP, 36 mM Tris-HCl pH 8.0, 30 °C, 23 μM enzyme
T1 construct: gene Cgl2379; full-length, C-terminal 6xHis (pET30a), E. coli BL21(DE3); dimer; residues 2-195 seen in crystal; active site at dimer interface

[4] = target: T2, CgLOG (Cg2612) (Corynebacterium glutamicum, UniProt Q8NN34); test: as above; assay type: biochemical; details: 20 mM AMP, 36 mM Tris-HCl pH 8.0, 30 °C, 23 μM enzyme
T2 construct: gene Cgl2379; full-length, C-terminal 6xHis (pET30a), E. coli BL21(DE3); dimer; residues 2-195 seen in crystal; active site at dimer interface
T2 sequence (Q8NN34 1-195): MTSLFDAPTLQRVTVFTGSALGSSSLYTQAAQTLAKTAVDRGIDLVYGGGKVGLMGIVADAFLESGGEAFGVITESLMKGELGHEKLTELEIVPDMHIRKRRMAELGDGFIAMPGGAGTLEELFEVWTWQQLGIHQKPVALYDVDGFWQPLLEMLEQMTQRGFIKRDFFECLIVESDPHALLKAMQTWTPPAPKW

T1 sequence (Q8NN34 entry or part of it S19A): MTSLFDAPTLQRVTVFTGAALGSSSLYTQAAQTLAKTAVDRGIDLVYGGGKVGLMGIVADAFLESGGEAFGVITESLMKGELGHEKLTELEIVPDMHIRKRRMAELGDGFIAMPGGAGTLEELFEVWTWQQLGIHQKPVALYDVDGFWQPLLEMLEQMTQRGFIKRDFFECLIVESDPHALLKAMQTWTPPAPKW

LOG from Corynebacterium glutamicum ATCC 13032 (gene product of Cg2612) (enzyme)
stoichiometry N [1]: 2
stoichiometry N [2]: 2

Nc1ncnc2c1ncn2[C@@H]1O[C@H](COP(=O)(O)O)[C@@H](O)[C@H]1O [AMP]
phosphoribohydrolase assay, TLC with UV detection of adenine [3]: One exception is S19A mutant which shows higher activity than the wild-type
phosphoribohydrolase assay, TLC with UV detection of adenine [4]: we observed that Cg2612 has phosphoribohydrolase activity
